# Test results taken from patent publication US8247376B2, “NGAL for reduction and amelioration of ischemic and nephrotoxic injuries” (The Trustees of Columbia University, priority 2004, dated 2012).
# “Also recorded” adds a separate entry of the source.
# Columns and labels:
# NGAL = NGAL (Homo sapiens, UniProt P80188); details: read-out: affinity of siderophore binding to NGAL (calyx); cited from earlier work
# [1] = system: mouse model of ATN or ischemia/reperfusion injury; assay: Mouse model of ATN (30 min clamp, contralateral nephrectomy): plasma creatinine; type: in vivo, mice; details: mice, 30 minutes of ischemia; 10 μg protein or single dose, 15 min prior to ischemia
# Procedure: Male C57BL/6 mice (20-25 gr; Charles River) were anesthetized with intraperitoneal pentobarbital (50 mg/kg) and placed on a heating pad under a warming light to maintain 37© core body temperature. Kidneys were exposed through an abdominal section and the right kidney was either removed or its vascular pedicle and ureter ligated. The vascular pedicle of the left kidney or both kidneys was clamped by a microaneurysm clip (Kent Scientific) for 30 minutes after right nephrectomy. This period of ischemia generated reproducible renal injury but minimized mortality. During the procedure, PBS (0.5 ml) was used to dampen the peritoneum. The animal was closed with 5-0 Nylon. Saline, NGAL, retinol-loaded retinol binding protein (RBP), enterochelin, or desferroxamine mesylate (DFO) were injected into the peritoneum or subcutaneously 15 min. prior to ischemia or 1-2 hr after reperfusion.
# After 6 or 24 hr of reperfusion, heparinized plasma, urine and kidney samples were obtained to measure NGAL (polyclonal 1:500), Heme oxygenase-1 (Stressgen, 1:2000), E-cadherin (BD Transduction Labs, 1:2000), N-cadherin (BD Transduction Labs, 1:3000) and GAPDH (Chemicon International, 1:3000) using immunoblots. Plasma was also used for creatinine and blood urea nitrogen colorimetric assays. Sagittal sections of the kidney were fixed in 4% formalin, or were snap frozen for mRNA and protein analysis. Paraffin-embedded sections (5 μm) were stained with hematoxylin-eosin or by an in situ kit (Fluorescein-TUNEL, Roche) for apoptotic nuclei or for total nuclei (Toprol, Molecular Probes). For cell proliferation analysis, BrdU was injected into the peritoneum 1 hour before sacrifice, and cryostat sections were stained with anti-BrdU (Roche) according to the manufacturer.
# [2] = Distribution and radioautography of ^55Fe after ^55Fe:Sid:NGAL injection; type: in vivo, mice; details: non-protein bound ^55Fe citrate
# [3] = NGAL trafficking after intraperitoneal or subcutaneous injection; type: in vivo, mice
# From the text: Recombinant human and mouse GST-NGAL were expressed in BL21 or XL1-Blue strains of E. coli (Stratagene) with additional ferric sulfate (50 Micro Molar, Sigma-Aldrich Co.). NGAL was isolated using Glutathione Sepharose 4B beads (Amersham Biosciences), eluted by thrombin cleavage (Sigma-Aldrich Co.; St. Louis, Mo.) and then further purified by gel filtration (Superdex75, SMART system, Amersham Biosciences) and examined by Coomassie gels (Biorad). BL-21 derived NGAL was loaded with iron free or iron saturated enterochelin, a siderophore (EMC Microcollections) using a 5 fold molar excess. Unbound siderophore (0.7 KD) was removed by washing (Microcon YM-10) with PBS. To produce ^55Fe or gallium (Ga) loaded NGAL we incubated the iron-free enterochelin NGAL complex with equimolar ^55Fe (18mCi) or Ga in NaCl (150 mM) Hepes (20 mM; pH 7.4) and the complex was washed 3 times (10K filter). Iodobeads (Pierce) were used to label NGAL with ^125I and unincorporated ^125I was removed by gel filtration (PD-10 column) followed by extensive dialysis (7 kDa cut off membrane, Pierce) against PBS. Alexa-568 and fluorescein isothiocyanate (Molecular Probes) was coupled to NGAL, according to the manufacturer, and then extensively dialyzed. Protein concentration was determined by Coomassie gels in comparison with bovine serum albumin standard.
# To detect delivery of NGAL to the kidney rNGAL (10 or 100 μg), Alexa 568-NGAL (100 μg), ^125I-NGAL ([…], 2×10^6 cpm), or ^55Fe loaded enterochelin-NGAL (10 μg, 1×10^6 cpm) was injected into the peritoneum and blood, urine, kidney and liver samples were obtained. NGAL was detected by immunoblot. Alexa-568 NGAL was detected by confocal microscopy (LSM Meta Detector) and NGAL mediated iron trafficking was detected by scintillation counter and by light microscopic radioautography of Epon embedded kidneys. Slides were exposed to emulsion (Polyscience) for 1 week and then developed with Microdol and counterstained with Toluidine blue. To detect lysosomes in the proximal tubule, mice were injected with Fluorescein Dextran (46 kD; 0.5 mg; Sigma) 24 hours before Alexa 568 NGAL injections. LAMP1 (Santa Cruz) was detected in cryostat sections of 4% paraformaldehyde fixed kidneys.
# [4] = previously reported; cited from earlier work
molecule,measurement,setting,value
"O=C(N[C@H]1COC(=O)[C@@H](NC(=O)c2cccc(O)c2O)COC(=O)[C@@H](NC(=O)c2cccc(O)c2O)COC1=O)c1cccc(O)c1O [Sid, enterochelin, reference compound]",Kd,NGAL,0.4 nM
same,"protection against ATN (creatinine, FIG. 17A)",[1],failed to protect against ATN; also recorded: ineffective
O=C([O-])CC(O)(CC(=O)[O-])C(=O)[O-].[Fe+3] [^55Fe citrate],iron recovered in the kidney,[2],1.5%
"[^125I]-NGAL: NGAL labelled with ^125I using Iodobeads (protein, UniProt P11672 21-200, looked up, 125I label, NGAL labelled with ^125I using Iodobeads) Neutrophil …: QDSTQNLIPAPSLLTVPLQPDFRSDQFRGRWYVVGLAGNAVQKKTEGSFTMYSTIYELQENNSYNVTSILVRDQDQGCRYWIRTFVPSSRAGQFTLGNMHRYPQVQSYNVQVATTDYNQFAMVFFRKTSENKQYFKITLYGRTKELSPELKERFTRFAKSLGLKDDNIIFSVPTDQCIDN","TCA precipitable fraction, kidney-localized protein",[3]; kidney,70%
same,kidney versus liver content per mg protein,[3]; one hour time-point,13 fold
same,TCA precipitable fraction,[3]; plasma,35%
same,TCA precipitable fraction,[3]; urine,20%
"human NGAL: human NGAL of previously reported clearance data (protein, UniProt P80188 21-198, looked up) Neutrophil …: QDSTSDLIPAPPLSKVPLQQNFQDNQFQGKWYVVGLAGNAILREDKDPQKMYATIYELKEDKSYNVTSVLFRKKKCDYWIRTFVPGCQPGEFTLGNIKSYPGLTSYLVRVVSTNYNQHAMVFFKKVSQNREYFKITLYGRTKELTSELKENFIRFSKSLGLPENHIVFPVPIDQCIDG",kidney versus liver level per mg protein,[4],12 fold
same,t1/2 of clearance from the circulation,[4],10 min
